# Test results as given in patent US20040072185A1 (published 2004).
# B1: S1T+4 truncated SERCA1 protein (other)
# chain: MEAAHAKTTEECLAYFGVSETTGLTPDQVKRNLEKYGLNELPAEEGKTLWELVIEQFEDLLVRILLLAACISFVLAWFEEGEETITAFVEPFVILLILIANAIVGVWQERNAENAIEALKEYEPEMGKVYRADRKSVQRIKARDIVPGDIVEVAVGDKVPADIRILAIKSTTLRVDQSILTGESVSVIKHTEPVPDPRAVNQDKKNMLFSGTNIAAGKALGIVATTGVGTEIGKIRDQMAATEQDKTPLQQKLDEFGEQLSKVISLICVAVWLINIGHFNDPVHGGSWFRGAIYYFKIAVALAVAAIPEGLPAVITTCLALGTRRMAKKNAIVRSLPSVETLGCTSVICSDKTGTLTTNQMSVCKMFIIDKVDGDICLLNEFSITGSTYAPEGEVPKVSMRRSARPPRQHSPPWWRR
# notes: Splice variant of SERCA1 lacking exon 11, expected size 46 kDa; Expressed in transfected cells or endogenous in cell lines; also called SERCA1-T
# Target: the molecule itself
# Assay: Western blotting of the microsomal fraction of transfected cells; self-association
# Method: The truncated SERCA1 protein could be detected in the microsomal fraction of transiently transfected cells, by western blotting. […] Immunohistochemical analyses of the transfected cells were carried out with the anti-SERCA1-T antibody and made it possible to detect a reticular location in the cells transfected with S1T+4.
protein,measurement,value
B1,binding result,binds
